Numbering of substitutions follows the chain as printed.
B1: Nanobody 7B2 (VHH)
VHH: EVQLVESGGGLVQAGDSLRLSCAASGRTFSSYAMGWFRQAPGKEREFVAAISWSDGSTYYADSVKGRFTISRDNAKNTVYLQMNSLKPEDTAVYYCAADLTSTNPGSYIYIWAYDYWGQGTQVTVSS
B2: Nanobody NC23 (VHH)
VHH: EVQLVESGGGLVQPGGSLRLSCAASGRTFSSIAMGWFRQAPGKEREFVAAISWSRGRTFYADSVKGRFIISRDDAANTAYLQMNSLKPEDTAVYYCAVDTASWNSGSFIYDWAYDHWGQGTQVTVSS
B3: Nanobody 15H8 (VHH)
VHH: EVQLVESGGGLVQAGGSLRLSCAASGRSFSNYVLGWFRQAPGKEREFVAAISFRGDSAIGAPSVEGRFTISRDNAKNTGYLQMNSLVPDDTAVYYCGAGTPLNPGAYIYDWSYDYWGRGTQVTVSS
B4: Nanobody 191D3 (VHH)
VHH: EVQLVESGGGLVQAGGSLRLSCEASGRTYSRYGMGWFRQAPGKEREFVAAVSRLSGPRTVYADSVKGRFTISRDNAENTVYLQMNSLKPEDTAVYTCAAELTNRNSGAYYYAWAYDYWGQGTQVTVSS
B5: Nanobody 1E4 (VHH)
VHH: B4 VHH with Y29F, R31S, S106P, A112T
B6: Nanobody NC41 (VHH)
VHH: EVQLVESGGGLVQAGGSLSISCAASGGSLSNYVLGWFRQAPGKEREFVAAINWRGDITIGPPNVEGRFTISRDNAKNTGYLQMNSLAPDDTAVYYCGAGTPLNPGAYIYDWSYDYWGRGTQVTVSS
B7: Nanobody 191E4 (VHH)
VHH: EVQLVESGGGLVQAGGSLRLSCAASGPTFSADTMGWFRQAPGKEREFVATIPWSGGIAYYSDSVKGRFTMSRDNAKNTVDLQMNSLKPEDTALYYCAGSSRIYIYSDSLSERSYDYWGQGTQVTVSS
B8: Nanobody 15B3 (VHH)
VHH: EVQLVESGGGLVQPGGSLRLSCAASGLTLDYYALGWFRQAPGKEREGVSCISSSDHSTTYTDSVKGRFTISWDNAKNTLYLQMNSLKPGDTAVYYCAADPALGCYSGSYYPRYDYWGQGTQVTVSS
B9: NC41v17 (VHH)
VHH: EVQLLESGGGLVQPGGSLRLSCAASGGSLSNYVLGWFRQAPGKGREFVAAINWRGDITIGPPNVEGRFTISRDNSKNTLYLQMNSLRPEDTAVYYCGAGTPLNPGAYIYDWSYDYWGQGTLVTVSS
B10: NC41v06 (VHH)
VHH: B9 VHH with G55D, S75A

biological target: F protein of hRSV strain A-2 (hRSV strain A-2); test: cell-based or functional assay

Row | Binder | RSV neutralization IC50
1 | B1 | 177 nM
2 | B2 | 109 nM
3 | B3 | 218 nM
4 | B4 | 227 nM
5 | B5 | 298 nM
6 | B6 | 26 nM

biological target: F protein of hRSV strain B-1 (hRSV strain B-1); test: cell-based or functional assay

Row | Binder | RSV neutralization IC50
7 | B1 | 2690 nM
8 | B3 | 2340 nM
9 | B7 | 4330 nM
10 | B6 | 4000 nM
11 | B8 | 1270 nM

biological target: F protein of hRSV strain Long (hRSV strain Long); test: cell-based or functional assay

Row | Binder | Neutralization IC50 (first assay) | Neutralization IC50 (second assay)
12 | B9 | 249 nM | 149 nM

biological target: F protein of hRSV strain B-1 (hRSV strain B-1); test: cell-based or functional assay; remark: another data set of the same source

Row | Binder | Neutralization IC50 (first assay) | Neutralization IC50 (second assay)
13 | B6 | 4710 nM | 3290 nM
14 | B10 | 806 nM | –
15 | B9 | 677 nM | 346 nM
